Data reported in paper PMC4955127 (Biotechnology for Biofuels, 2016).
One block for each molecule: values may come before it.

Key:
Bgl3A = biological target: T1, Bgl3A (Evansstolkia leycettana, UniProt A0A1B0VFN7); assay: glucose inhibition of pNPG hydrolysis; assay type: biochemical; details: product inhibition; substrate pNPG
T1 construct: mature enzyme without native signal peptide (residues 1-19 of 737 removed)
T1 sequence (A0A1B0VFN7 20-737): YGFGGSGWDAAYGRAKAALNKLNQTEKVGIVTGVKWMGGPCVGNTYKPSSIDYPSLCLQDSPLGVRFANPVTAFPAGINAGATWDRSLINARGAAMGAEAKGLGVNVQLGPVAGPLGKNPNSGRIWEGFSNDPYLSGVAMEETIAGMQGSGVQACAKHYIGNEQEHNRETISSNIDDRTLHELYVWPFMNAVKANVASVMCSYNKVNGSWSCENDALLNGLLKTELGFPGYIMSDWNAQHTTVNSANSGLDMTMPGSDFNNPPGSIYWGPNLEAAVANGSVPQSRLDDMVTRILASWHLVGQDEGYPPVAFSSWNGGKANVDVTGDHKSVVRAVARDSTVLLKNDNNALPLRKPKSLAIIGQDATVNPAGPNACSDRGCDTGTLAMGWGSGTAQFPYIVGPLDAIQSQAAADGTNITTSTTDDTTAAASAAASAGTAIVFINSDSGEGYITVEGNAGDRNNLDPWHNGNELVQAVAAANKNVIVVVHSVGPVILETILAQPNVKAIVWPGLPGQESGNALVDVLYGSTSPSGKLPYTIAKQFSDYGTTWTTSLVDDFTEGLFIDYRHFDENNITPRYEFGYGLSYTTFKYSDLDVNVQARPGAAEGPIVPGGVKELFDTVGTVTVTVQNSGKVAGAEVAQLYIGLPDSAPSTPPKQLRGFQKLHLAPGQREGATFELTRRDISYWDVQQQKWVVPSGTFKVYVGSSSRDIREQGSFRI

purified protein = substrate: O=[N+]([O-])c1ccc(O[C@@H]2O[C@H](CO)[C@@H](O)[C@H](O)[C@H]2O)cc1; assay: purified protein; details: 100 mM Na2HPO4-citric acid, optimal conditions (pH 4.5, 75 °C), 5 min

- Ki (Bgl3A): 14 mM
Molecule: OC[C@H]1OC(O)[C@H](O)[C@@H](O)[C@@H]1O (some centres unmarked) [glucose]

B1: Bgl3A (Evansstolkia leycettana) (protein)
chain: T1 sequence (A0A1B0VFN7 20-737)
- Km (purified protein): 180 µM
- Vmax (purified protein): 1310 µmol/min/mg
- kcat (purified protein): 1660 s⁻¹
- kcat/Km (purified protein): 9.1e+06 M⁻¹ s⁻¹
